# Test results: the supplement of paper PMC9112550, “Optimization of the antimicrobial peptide Bac7 by deep mutational scanning” (BMC Biology, 2022)
# Tested on: Escherichia coli TOP10
# Assay: shrunken log2 fold change of peptide-encoding DNA abundance (4.5 h post-induction vs induction); higher = less antimicrobial activity (less host growth inhibition)
# Conditions: time post-induction: 4.5 h; library: site-saturation at positions 5, 18, 19, 20
# 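Note: peptides expressed intracellularly from a pBAD plasmid library in pooled LB shake-flask culture, induced with 0.3% L-arabinose, DNA abundance read by NGS, three biological replicates, DESeq2 with apeglm shrinkage.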
row,Sequence,shrunken log2 fold change
1,RRIRNRPPRLPRPRPRPWHGPRP,-0.153
2,RRIRPRPPRLPRPRPRPHVWPRP,0.51
3,RRIRPRPPRLPRPRPRPFPIPRP,-0.371
4,RRIRLRPPRLPRPRPRPKKGPRP,-0.166
5,RRIRSRPPRLPRPRPRPCYYPRP,-0.571
6,RRIRKRPPRLPRPRPRPVMSPRP,-0.123
7,RRIRDRPPRLPRPRPRPAADPRP,0.701
8,RRIRDRPPRLPRPRPRPALDPRP,1.05
9,RRIRHRPPRLPRPRPRPGQFPRP,-0.0207
10,RRIRTRPPRLPRPRPRPHLKPRP,-0.207
11,RRIRYRPPRLPRPRPRPFSSPRP,0.015
12,RRIRARPPRLPRPRPRPSSEPRP,0.271
13,RRIRMRPPRLPRPRPRPIYHPRP,-0.322
14,RRIRPRPPRLPRPRPRPEMWPRP,0.579
15,RRIRKRPPRLPRPRPRPGYLPRP,-0.319
16,RRIRARPPRLPRPRPRPNMNPRP,-0.212
17,RRIRTRPPRLPRPRPRPWCEPRP,0.0211
18,RRIRIRPPRLPRPRPRPSWVPRP,-0.168
19,RRIRFRPPRLPRPRPRPKWGPRP,0.129
20,RRIRLRPPRLPRPRPRPLLDPRP,0.3
21,RRIRFRPPRLPRPRPRPVLPPRP,-0.371
22,RRIRQRPPRLPRPRPRPCWSPRP,-0.08
23,RRIRFRPPRLPRPRPRPDAKPRP,0.417
24,RRIRWRPPRLPRPRPRPCGWPRP,0.314
25,RRIRNRPPRLPRPRPRPHSGPRP,-0.517

row,Sequence,shrunken log2 fold change
1,RRIRTRPPRLPRPRPRPSCRPRP,-0.219
2,RRIRRRPPRLPRPRPRPTPFPRP,0.632
3,RRIRPRPPRLPRPRPRPNIFPRP,-0.189
4,RRIRKRPPRLPRPRPRPWLWPRP,0.00796
5,RRIRMRPPRLPRPRPRPAHSPRP,0.111
6,RRIRPRPPRLPRPRPRPQCAPRP,0.167
7,RRIRLRPPRLPRPRPRPMSDPRP,0.0343
8,RRIRTRPPRLPRPRPRPAFGPRP,0.155
9,RRIRKRPPRLPRPRPRPYLLPRP,-0.525
10,RRIRCRPPRLPRPRPRPAFDPRP,0.253
11,RRIRQRPPRLPRPRPRPKMIPRP,-0.231
12,RRIRYRPPRLPRPRPRPRKDPRP,-0.288
13,RRIRLRPPRLPRPRPRPVPGPRP,0.113
14,RRIRFRPPRLPRPRPRPDWWPRP,-0.0896
15,RRIRTRPPRLPRPRPRPMLAPRP,0.306
16,RRIRNRPPRLPRPRPRPLDWPRP,-0.0554
17,RRIRHRPPRLPRPRPRPKLTPRP,-0.0624
18,RRIRNRPPRLPRPRPRPGQCPRP,0.0172
19,RRIRPRPPRLPRPRPRPGAEPRP,0.798
20,RRIRERPPRLPRPRPRPTSAPRP,0.153
21,RRIRHRPPRLPRPRPRPQIGPRP,-0.0135
22,RRIRRRPPRLPRPRPRPEKSPRP,0.0868
23,RRIRRRPPRLPRPRPRPQWDPRP,0.0215
24,RRIRSRPPRLPRPRPRPDHMPRP,-0.00607
25,RRIRTRPPRLPRPRPRPYTYPRP,-0.489

row,Sequence,shrunken log2 fold change
1,RRIRERPPRLPRPRPRPVTCPRP,-0.204
2,RRIRGRPPRLPRPRPRPSKIPRP,0.149
3,RRIRTRPPRLPRPRPRPYQKPRP,-0.197
4,RRIRFRPPRLPRPRPRPAKAPRP,0.26
5,RRIRTRPPRLPRPRPRPEWGPRP,0.249
6,RRIRNRPPRLPRPRPRPVWWPRP,0.259
7,RRIRSRPPRLPRPRPRPQKTPRP,0.0161
8,RRIRYRPPRLPRPRPRPGQNPRP,-0.01
9,RRIRMRPPRLPRPRPRPWNGPRP,-0.0377
10,RRIRLRPPRLPRPRPRPFKIPRP,-0.00613
11,RRIRVRPPRLPRPRPRPVMIPRP,-0.183
12,RRIRRRPPRLPRPRPRPNYKPRP,-0.232
13,RRIRLRPPRLPRPRPRPYMWPRP,-1.05
14,RRIRCRPPRLPRPRPRPTGAPRP,0.419
15,RRIRTRPPRLPRPRPRPWSVPRP,-0.199
16,RRIRTRPPRLPRPRPRPFDEPRP,-0.206
17,RRIRKRPPRLPRPRPRPRIQPRP,0.475
18,RRIRYRPPRLPRPRPRPWLIPRP,-0.204
19,RRIRDRPPRLPRPRPRPVPCPRP,0.0758
20,RRIRVRPPRLPRPRPRPMRLPRP,0.617
21,RRIRMRPPRLPRPRPRPIWLPRP,0.0637
22,RRIRHRPPRLPRPRPRPESQPRP,-0.173
23,RRIRRRPPRLPRPRPRPGNVPRP,0.418
24,RRIRRRPPRLPRPRPRPMFAPRP,0.24
25,RRIRYRPPRLPRPRPRPYQIPRP,-0.659
